US20160304570A1

How the values were obtained:
Assay in all cases: cell-based or functional assay
[1] = biological target: human voltage-gated sodium channel Nav1.3 (human) (UniProt Q9NY46)
[2] = biological target: human voltage-gated sodium channel Nav1.7 (human) (UniProt Q15858)
[3] = biological target: human Nav1.7 voltage-gated sodium channel (human) (UniProt Q15858)
[4] = biological target: human Nav1.3 voltage-gated sodium channel (human) (UniProt Q9NY46)
[5] = biological target: human Nav1.5 voltage-gated sodium channel (human) (UniProt Q14524)
[6] = biological target: human voltage-gated sodium channel Nav1.7 (human) (UniProt Q15858); remark: listed apart in the source
[7] = biological target: human voltage-gated sodium channel Nav1.5 (human) (UniProt Q14524)
[8] = biological target: human voltage-gated sodium channel Nav1.5 (human) (UniProt Q14524); remark: listed apart in the source
[9] = biological target: human voltage-gated sodium channel Nav1.4 (human) (UniProt P35499)

human Nav1.5 voltage-gated sodium channel (human), sequence (Q14524 whole entry): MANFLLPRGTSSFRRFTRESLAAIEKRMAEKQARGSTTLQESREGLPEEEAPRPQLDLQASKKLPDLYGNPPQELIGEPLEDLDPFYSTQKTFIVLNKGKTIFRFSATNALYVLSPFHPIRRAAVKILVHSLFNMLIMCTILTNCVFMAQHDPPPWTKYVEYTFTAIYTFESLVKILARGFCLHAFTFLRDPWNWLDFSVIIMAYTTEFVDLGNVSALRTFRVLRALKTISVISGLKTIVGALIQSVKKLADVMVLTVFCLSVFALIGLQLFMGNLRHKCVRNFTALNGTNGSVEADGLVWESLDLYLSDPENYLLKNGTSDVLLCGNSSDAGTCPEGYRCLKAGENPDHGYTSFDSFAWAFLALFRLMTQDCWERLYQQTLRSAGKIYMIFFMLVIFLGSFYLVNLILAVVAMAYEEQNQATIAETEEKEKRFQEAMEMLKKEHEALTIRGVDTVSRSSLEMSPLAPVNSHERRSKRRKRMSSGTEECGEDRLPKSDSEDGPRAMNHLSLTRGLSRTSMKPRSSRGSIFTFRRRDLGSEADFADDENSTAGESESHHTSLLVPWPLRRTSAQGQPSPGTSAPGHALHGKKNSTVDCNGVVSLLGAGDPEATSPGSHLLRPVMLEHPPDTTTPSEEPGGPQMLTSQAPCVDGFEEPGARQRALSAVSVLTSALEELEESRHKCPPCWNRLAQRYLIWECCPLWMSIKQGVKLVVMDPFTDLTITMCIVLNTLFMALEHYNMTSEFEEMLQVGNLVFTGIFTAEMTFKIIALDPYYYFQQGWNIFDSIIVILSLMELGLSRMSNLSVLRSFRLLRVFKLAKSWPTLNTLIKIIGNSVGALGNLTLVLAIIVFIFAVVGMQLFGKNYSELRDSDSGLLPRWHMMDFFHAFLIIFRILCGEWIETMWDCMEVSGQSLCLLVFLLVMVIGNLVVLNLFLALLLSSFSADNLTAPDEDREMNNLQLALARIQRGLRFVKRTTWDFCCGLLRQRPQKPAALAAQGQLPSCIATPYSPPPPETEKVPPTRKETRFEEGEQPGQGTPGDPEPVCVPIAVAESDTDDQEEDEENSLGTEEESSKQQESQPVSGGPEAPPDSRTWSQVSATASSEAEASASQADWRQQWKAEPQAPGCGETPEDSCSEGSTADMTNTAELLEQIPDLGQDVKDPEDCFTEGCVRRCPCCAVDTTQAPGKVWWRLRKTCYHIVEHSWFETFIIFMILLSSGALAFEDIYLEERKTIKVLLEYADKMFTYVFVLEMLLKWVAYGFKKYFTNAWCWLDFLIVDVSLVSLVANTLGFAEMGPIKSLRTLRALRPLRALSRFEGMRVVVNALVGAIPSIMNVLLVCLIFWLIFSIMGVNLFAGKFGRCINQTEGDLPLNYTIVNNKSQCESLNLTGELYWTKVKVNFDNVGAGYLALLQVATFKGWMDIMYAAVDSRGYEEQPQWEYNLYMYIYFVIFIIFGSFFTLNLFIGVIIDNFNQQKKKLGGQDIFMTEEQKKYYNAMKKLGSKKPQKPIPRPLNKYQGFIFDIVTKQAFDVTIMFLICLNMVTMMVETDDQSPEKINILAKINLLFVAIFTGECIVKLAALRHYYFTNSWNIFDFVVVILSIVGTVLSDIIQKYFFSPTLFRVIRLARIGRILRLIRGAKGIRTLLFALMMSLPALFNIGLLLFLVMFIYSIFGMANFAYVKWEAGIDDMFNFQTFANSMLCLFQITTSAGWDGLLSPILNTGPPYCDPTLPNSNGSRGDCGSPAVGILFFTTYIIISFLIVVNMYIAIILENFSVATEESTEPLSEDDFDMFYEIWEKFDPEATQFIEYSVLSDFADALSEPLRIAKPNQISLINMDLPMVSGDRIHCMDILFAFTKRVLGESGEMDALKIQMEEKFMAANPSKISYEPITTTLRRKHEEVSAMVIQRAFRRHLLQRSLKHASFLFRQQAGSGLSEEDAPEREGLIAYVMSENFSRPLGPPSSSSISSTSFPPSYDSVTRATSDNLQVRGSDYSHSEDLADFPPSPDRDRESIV
human voltage-gated sodium channel Nav1.5 (human), sequence (Q14524 whole entry): as above

Substance: [Ala5;Phe6;Val13;Arg28]GpTx-1(1-34)-FreeAcid (peptide)
- IWQ Use Nav1.3 IC50 [1]: 1700 nM

Substance: [Ala5;Phe6;Met13;Arg28]GpTx-1(1-34)-FreeAcid (peptide)
- IWQ Use Nav1.7 IC50 [2]: 4700 nM
- IWQ Use Nav1.3 IC50 [1]: 800 nM

Substance: [Ala5;Phe6;Arg13,28]GpTx-1(1-34)-FreeAcid (peptide)
- IWQ Use Nav1.7 IC50 [2]: 4500 nM
- IWQ Use Nav1.3 IC50 [1]: 600 nM

Substance: [Ala5;Phe6;Gln13;Arg28]GpTx-1(1-34)-FreeAcid (peptide)
- IWQ Use Nav1.3 IC50 [1]: 1700 nM

Substance: [Ala5;Phe6;Ser13;Arg28]GpTx-1(1-34)-FreeAcid (peptide)
- IWQ Use Nav1.3 IC50 [1]: 1100 nM

Substance: [2-Abu5;Leu6;K(4-Pen)13;Arg28]GpTx-1(1-34) (peptide)
- IWQ Use Nav1.7 IC50 (IonWorks Quattro electrophysiology) [3]: 0.55 µM
- IWQ Use Nav1.3 IC50 (IonWorks Quattro electrophysiology) [4]: 0.81 µM
- IWQ Use Nav1.5 IC50 (IonWorks Quattro electrophysiology) [5]: 39.7 µM
- Nav1.7 Use IC50 (µM), electrophysiology by PatchXpress [6]: 0.002 µM
- Nav1.5 Use IC50 (µM), electrophysiology by PatchXpress [7]: > 10 µM

Substance: 4-Pen-[Nva5;Leu6;2-Abu13;Arg28]GpTx-1(1-34) (peptide)
- IWQ Use Nav1.7 IC50 (IonWorks Quattro electrophysiology) [2]: 0.1 µM
- IWQ Use Nav1.3 IC50 (IonWorks Quattro electrophysiology) [1]: 0.23 µM
- IWQ Use Nav1.5 IC50 (IonWorks Quattro electrophysiology) [8]: 46.2 µM

Substance: [Ala5;Leu6,26;Pra12;Arg28]GpTx-1(1-34) (peptide)
- IWQ Use Nav1.7 IC50 (IonWorks Quattro electrophysiology) [3]: 0.26 µM
- IWQ Use Nav1.3 IC50 (IonWorks Quattro electrophysiology) [4]: 0.54 µM
- IWQ Use Nav1.5 IC50 (IonWorks Quattro electrophysiology) [5]: > 50 µM

Substance: 4-Pen-[2-Abu5,13;Leu6;Arg28]GpTx-1(1-34) (peptide)
- IWQ Use Nav1.7 IC50 (IonWorks Quattro electrophysiology) [3]: 0.54 µM
- IWQ Use Nav1.3 IC50 (IonWorks Quattro electrophysiology) [4]: 0.9 µM
- IWQ Use Nav1.5 IC50 (IonWorks Quattro electrophysiology) [5]: 36.8 µM
- Nav1.7 Use IC50 (µM), electrophysiology by PatchXpress [6]: 0.003 µM
- Nav1.5 Use IC50 (µM), electrophysiology by PatchXpress [7]: > 10 µM

Substance: [Ala5;Phe6;Glu10;Pra13;Leu26;Arg28]GpTx-1(1-34) (peptide)
- IWQ Use Nav1.7 IC50 (IonWorks Quattro electrophysiology) [3]: 0.54 µM
- IWQ Use Nav1.3 IC50 (IonWorks Quattro electrophysiology) [4]: 0.56 µM
- IWQ Use Nav1.5 IC50 (IonWorks Quattro electrophysiology) [5]: 32.2 µM
- Nav1.7 Use IC50 (µM), electrophysiology by PatchXpress [6]: 0.012 µM
- Nav1.5 Use IC50 (µM), electrophysiology by PatchXpress [7]: 15.3 µM

Substance: [Ala5;Leu6,26;Pra13;Arg28]GpTx-1(1-34) (peptide)
- IWQ Use Nav1.7 IC50 (IonWorks Quattro electrophysiology) [3]: 0.22 µM
- IWQ Use Nav1.3 IC50 (IonWorks Quattro electrophysiology) [4]: 0.48 µM
- IWQ Use Nav1.5 IC50 (IonWorks Quattro electrophysiology) [5]: 36.4 µM
- Nav1.7 Use IC50 (µM), electrophysiology by PatchXpress [6]: 0.009 µM
- Nav1.5 Use IC50 (µM), electrophysiology by PatchXpress [7]: > 10 µM

Substance: [Ala5;Phe6;Glu10;Atz(PEG11-((2-hydroxyethyl)thio)acetamide)13;Leu26;Arg28]GpTx-1(1-34) (peptide)
- Nav1.7 Use IC50 (PatchXpress electrophysiology, inhibition of sodium current) [6]: 0.021 µM
- Nav1.4 Use IC50 (PatchXpress electrophysiology, inhibition of sodium current) [9]: > 10 µM
- Nav1.5 Use IC50 (PatchXpress electrophysiology, inhibition of sodium current) [7]: > 10 µM

Substance: [Ala5;Phe6;Ile13;Arg28]GpTx-1(1-34)-FreeAcid (peptide)
- IWQ Use Nav1.3 IC50 [1]: 3000 nM

Substance: [2-Abu5,Leu6,K(ethyl-triazole-PEG11-((2-hydroxyethyl)thio)acetamide)13,Arg28]GpTx-1(1-34) (peptide)
- Nav1.7 Use IC50 (PatchXpress electrophysiology, inhibition of sodium current) [6]: 0.018 µM
- Nav1.4 Use IC50 (PatchXpress electrophysiology, inhibition of sodium current) [9]: 9.88 µM
- Nav1.5 Use IC50 (PatchXpress electrophysiology, inhibition of sodium current) [7]: > 10 µM

Substance: [Ala5;Phe6;Lys13;Arg28]GpTx-1(1-34)-FreeAcid (peptide)
- IWQ Use Nav1.7 IC50 [2]: 3600 nM
- IWQ Use Nav1.3 IC50 [1]: 300 nM
- IWQ Use Nav1.5 IC50 [8]: 2800 nM

Substance: [Ala5;Phe6;Glu13;Arg28]GpTx-1(1-34)-FreeAcid (peptide)
- IWQ Use Nav1.3 IC50 [1]: 1900 nM

Substance: 4-Pen-[Ala5;Phe6;2-Abu13;Arg28]GpTx-1(1-34) (peptide)
- IWQ Use Nav1.7 IC50 (IonWorks Quattro electrophysiology) [2]: 0.18 µM
- IWQ Use Nav1.3 IC50 (IonWorks Quattro electrophysiology) [1]: 0.26 µM
- IWQ Use Nav1.5 IC50 (IonWorks Quattro electrophysiology) [8]: 44.4 µM
- Nav1.7 Use IC50 (µM), electrophysiology by PatchXpress [6]: 0.004 µM
- Nav1.5 Use IC50 (µM), electrophysiology by PatchXpress [7]: > 10 µM

Substance: [Ala5;Phe6,13;Arg28]GpTx-1(1-34)-FreeAcid (peptide)
- IWQ Use Nav1.3 IC50 [1]: 1200 nM

Substance: [Ala5;Phe6;Asp13;Arg28]GpTx-1(1-34)-FreeAcid (peptide)
- IWQ Use Nav1.3 IC50 [1]: 2300 nM
